Measurements as given in patent US20260297195 (published 2026).
Values belong to the binder of their own block, whether it stands above or below them.

Assays:
human PDL1-His = human PDL1-His (human); test: SPR 25C
human PDL1-Fc [1] = biological target: human PDL1-Fc (human); test: BLI
human PDL1-Fc [2] = biological target: human PDL1-Fc (human); test: ELISA

Sequence of human PDL1-Fc (human) (chain, as listed by the source): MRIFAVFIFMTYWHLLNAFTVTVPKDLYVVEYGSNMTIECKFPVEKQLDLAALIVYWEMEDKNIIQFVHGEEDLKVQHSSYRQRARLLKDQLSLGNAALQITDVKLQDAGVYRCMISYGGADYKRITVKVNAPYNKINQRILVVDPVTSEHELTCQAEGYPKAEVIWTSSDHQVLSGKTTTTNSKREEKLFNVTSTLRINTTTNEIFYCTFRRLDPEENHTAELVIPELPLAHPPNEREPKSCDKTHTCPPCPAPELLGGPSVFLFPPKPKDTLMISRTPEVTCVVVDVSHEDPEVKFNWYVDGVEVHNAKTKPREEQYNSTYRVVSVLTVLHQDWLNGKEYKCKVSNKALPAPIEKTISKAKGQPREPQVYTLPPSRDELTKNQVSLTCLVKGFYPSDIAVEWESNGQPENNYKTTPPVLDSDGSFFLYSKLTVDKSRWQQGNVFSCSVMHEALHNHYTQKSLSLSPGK
Sequence of human PDL1-His (human) (chain, as listed by the source): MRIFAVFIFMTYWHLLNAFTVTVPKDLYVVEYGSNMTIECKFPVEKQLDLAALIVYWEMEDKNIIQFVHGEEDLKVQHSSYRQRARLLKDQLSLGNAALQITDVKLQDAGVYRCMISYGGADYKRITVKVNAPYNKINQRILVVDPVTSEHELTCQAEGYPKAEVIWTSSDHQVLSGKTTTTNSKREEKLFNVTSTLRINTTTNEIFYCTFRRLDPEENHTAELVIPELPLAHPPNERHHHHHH

binding result (human PDL1-His): no binding
B1: NbPDL1-14-Fc (antibody, V domains shown)
VH: QVQLQESGGGLVQPGGSLRLSCAASGIISDINMVAWYRQAPGKQRELVAKIFRGGSTYYTDFVKGRFTISRENAKNTVYLQMNSLKPDDTAVYYCNARIQIRADRDYSDYWGQGTQVTVSS

binding result (human PDL1-His): no binding
B2: PDL1-14 (antibody, V domains shown)
VH: B1 VH

Kd (human PDL1-Fc [1]): 12.2 nM | EC50 (human PDL1-Fc [2]): 0.0478 µg/mL
B3: PDL1-1v5 (antibody, V domains shown)
VH: EVQLLESGGGLVQPGGSLRLSCAASGFTVSNSAVSWARQAPGKGLEWVSLIDSNRNTVYAQSVRGRFTISRDNVKNTVYLQMNSLRAEDTAVYYCAKGWGSTLWGQGTTVTVSS

Kd (human PDL1-Fc [1]): 22 nM
B4: PDL1-1v6 (antibody, V domains shown)
VH: EVQLLESGGGLVQPGGSLRLSCAASGFTVSNSAVSWARQAPGKGLEWVSLIDSNRNTVYAQSVRGRFTISRDNSKNTVYLQMNSLKAEDTAVYYCAKGIWGSTLWGQGTTVTVSS
